Target: T1, extracellular domain of the human Fas ligand (produced in Pichia pastoris GS115) (human, UniProt P48023 103-281)
T1 construct: extracellular domain; also called human Fas ligand extracellular domain
T1 sequence (looked up): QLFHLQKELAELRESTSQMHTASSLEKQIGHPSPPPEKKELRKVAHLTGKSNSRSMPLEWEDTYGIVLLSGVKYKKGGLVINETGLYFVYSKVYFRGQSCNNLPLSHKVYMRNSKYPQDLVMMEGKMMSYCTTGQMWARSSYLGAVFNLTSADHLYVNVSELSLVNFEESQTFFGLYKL
Test: affinity chromatography on immobilized hFas-Fc

binding result: binds
B1: hFas-Fc (chimeric protein of the extracellular domain of the human Fas antigen and Fc region of human IgG1) (Fc fusion, UniProt P25445 26-173, looked up)
chain: QVTDINSKGLELRKTVTTVETQNLEGLHHDGQFCHKPCPPGERKARDCTVNGDEPDCVPCQEGKEYTDKAHFSSKCRRCRLCDEGHGLEVEINCTRTQNTKCRCKPNFFCNSTVCEHCDPCTKCEHGIIKECTLTSNTKCKEEGSRSN
notes: extracellular domain; The construct limits are only in WO 95/13293; also called human Fas-Fc; product of plasmid pBF-Fc1; not shown: Fc region of human IgG1

Source: US20030109416A1 (MOCHIDA PHARMACEUTICAL, published 2003)
